# Reference: paper PMC4617978
# Values joined by “and” are separate entries in the source; they are usually repeats but may differ in a detail not shown here. Identical values can stand only once.
# B1: His6-tagged BAKΔTM (BAK lacking its transmembrane domain, residues 1–186) (domain or fragment)
# chain: MASGQGPGPPRQECGEPALPSASEEQVAQDTEEVFRSYVFYRHQQEQEAEGVAAPADPEMVTLPLQPSSTMGQVGRQLAIIGDDINRRYDSEFQTMLQHLQPTAENAYEYFTKIATSLFESGINWGRVVALLGFGYRLALHVYQHGLTGFLGQVTRFVVDFMLHHCIARWIAQRGGWVAALNLGNG
# Key:
# [1] = target: His6-tagged BAKΔTM (BAK lacking its transmembrane domain, residues 1–186) (human) (UniProt Q16611); assay: cross-linking
# [2] = target: MCL1ΔTM (cleaved by thrombin from GST-MCL1ΔTM); assay: SPR
# [3] = target: BCLXLΔTM (cleaved by thrombin from GST-BCLXLΔTM); assay: SPR
Molecule,stoichiometry N [1],fold less tight binding than BAK BH3 peptide [2],fold less tight binding than BAK BH3 peptide [3]
"His6-tagged BAKΔTM (BAK lacking its transmembrane domain, residues 1–186) (from UniProt Q16611 1-186) (domain or fragment)",2 and 3,,
B1,,100 fold,100 fold
